Laboratory results taken from US20140087995A1 (published 2014).
Values belong to the binder of their own block, whether it stands above or below them. Numbered stars: 1 amine (or outer) side, 2 acyl side, 3 side chain; on linkers, the order of the positions; unused ones are H or OH. Bridge positions count the residues as written; N and C are the ends. Side chains are listed from the residue outwards. Ends that are not written are not given here. * marks the point of attachment. C20 diacid = O=C(O)CCCCCCCCCCCCCCCCCCC(=O)*; γGlu = O=C(O)[C@H](CCC(=O)[*:2])N[*:1]

Legend:
[1] = molecular target: T1, human amylin 3(a) receptor (human calcitonin receptor plus RAMP-3) (human, UniProt P30988 25-474; O60896 24-148, limits assumed); test: cell-based or functional assay
T1 sequence (looked up) 1: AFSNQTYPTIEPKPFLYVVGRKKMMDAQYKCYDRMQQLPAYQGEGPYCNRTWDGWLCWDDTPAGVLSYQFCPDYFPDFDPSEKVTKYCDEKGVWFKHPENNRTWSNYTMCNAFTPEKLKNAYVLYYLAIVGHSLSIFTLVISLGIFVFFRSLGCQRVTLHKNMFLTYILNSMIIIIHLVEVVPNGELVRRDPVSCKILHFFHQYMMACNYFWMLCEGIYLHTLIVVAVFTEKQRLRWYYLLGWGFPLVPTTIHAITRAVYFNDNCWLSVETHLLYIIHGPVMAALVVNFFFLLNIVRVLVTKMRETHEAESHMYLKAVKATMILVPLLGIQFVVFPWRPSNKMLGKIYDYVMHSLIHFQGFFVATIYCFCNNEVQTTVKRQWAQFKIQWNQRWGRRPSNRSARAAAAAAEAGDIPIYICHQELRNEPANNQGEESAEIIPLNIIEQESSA
T1 sequence (looked up) 2: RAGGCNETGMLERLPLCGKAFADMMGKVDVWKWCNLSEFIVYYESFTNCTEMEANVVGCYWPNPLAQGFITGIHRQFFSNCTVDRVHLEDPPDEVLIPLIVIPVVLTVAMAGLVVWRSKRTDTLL

[2] = molecular target: T2, human calcitonin receptor (human, UniProt P30988 25-474); test: cell-based or functional assay
T2 sequence (looked up): T1 sequence (looked up) 1

[3] = molecular target: T1, human amylin 3(a) receptor (human …); test: SPA competition binding, displacement of 125I-rat amylin from membranes of Amylin 3(a)/CRE-luc BHK cells (Assay V)
In short: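 Membranes from BHK Amylin 3(a)/CRE-luc cells (35 ng/μL final) were mixed with SPA beads and test compounds in 50 mM Hepes pH 7.4 with 1 mM CaCl2, 5 mM MgCl₂, 0.1% OA and 0.02% Tween20. Incubation ran 120 min at 25° C with shaking; IC₅₀ came from one-site competition fitting.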

Binder: {C20 diacid-γGlu}-KCNTATCATQRLAEFLRHSSPNFGAILPSTNVGSETY-NH2 (disulfide 2-7, also called compound 33)
Ratio hCT/hAmylin funct. [1]: 2.2
hAmylin-R funct. EC50 [1]: 0.243 nM
hCTR funct. EC50 [2]: 0.528 nM
IC50 [3]: 0.915 nM

B3: N^ε1-[(4S)-4-carboxy-4-(19-carboxynonadecanoylamino)butanoyl]-[Glu14,Arg17,Pro21,Pro27,Arg35]-h-amylin (peptide)
peptide: K([γGlu-C20 diacid])CNTATCATQRLAEFLRHSSPNFGAIPSSTNVGSRTY-NH2
modifications: disulfide 2-7; N-terminus assumed
SMILES: CC[C@H](C)[C@H](NC(=O)[C@H](C)NC(=O)CNC(=O)[C@H](Cc1ccccc1)NC(=O)[C@H](CC(N)=O)NC(=O)[C@@H]1CCCN1C(=O)[C@H](CO)NC(=O)[C@H](CO)NC(=O)[C@H](Cc1c[nH]cn1)NC(=O)[C@H](CCCNC(=N)N)NC(=O)[C@H](CC(C)C)NC(=O)[C@H](Cc1ccccc1)NC(=O)[C@H](CCC(=O)O)NC(=O)[C@H](C)NC(=O)[C@H](CC(C)C)NC(=O)[C@H](CCCNC(=N)N)NC(=O)[C@H](CCC(N)=O)NC(=O)[C@@H](NC(=O)[C@H](C)NC(=O)[C@@H]1CSSC[C@H](NC(=O)[C@@H](N)CCCCNC(=O)CC[C@H](NC(=O)CCCCCCCCCCCCCCCCCCC(=O)O)C(=O)O)C(=O)N[C@@H](CC(N)=O)C(=O)N[C@@H]([C@@H](C)O)C(=O)N[C@@H](C)C(=O)N[C@@H]([C@@H](C)O)C(=O)N1)[C@@H](C)O)C(=O)N1CCC[C@H]1C(=O)N[C@@H](CO)C(=O)N[C@@H](CO)C(=O)N[C@H](C(=O)N[C@@H](CC(N)=O)C(=O)N[C@H](C(=O)NCC(=O)N[C@@H](CO)C(=O)N[C@@H](CCCNC(=N)N)C(=O)N[C@H](C(=O)N[C@@H](Cc1ccc(O)cc1)C(N)=O)[C@@H](C)O)C(C)C)[C@@H](C)O
notes: also called compound 51
Ratio hCT/hAmylin funct. [1]: 14
hAmylin-R funct. EC50 [1]: 0.372 nM
hCTR funct. EC50 [2]: 5.22 nM
IC50 [3]: 0.828 nM

B5: N^α1N^α1-[(4S)-4-carboxy-4-(19-carboxynonadecanoylamino)butanoyl]-[Glu14,Arg17,Pro21,Pro27,Glu35]-h-amylin (peptide)
peptide: {C20 diacid-γGlu}-KCNTATCATQRLAEFLRHSSPNFGAIPSSTNVGSETY-NH2
modifications: disulfide 2-7
SMILES: CC[C@H](C)[C@H](NC(=O)[C@H](C)NC(=O)CNC(=O)[C@H](Cc1ccccc1)NC(=O)[C@H](CC(N)=O)NC(=O)[C@@H]1CCCN1C(=O)[C@H](CO)NC(=O)[C@H](CO)NC(=O)[C@H](Cc1c[nH]cn1)NC(=O)[C@H](CCCNC(=N)N)NC(=O)[C@H](CC(C)C)NC(=O)[C@H](Cc1ccccc1)NC(=O)[C@H](CCC(=O)O)NC(=O)[C@H](C)NC(=O)[C@H](CC(C)C)NC(=O)[C@H](CCCNC(=N)N)NC(=O)[C@H](CCC(N)=O)NC(=O)[C@@H](NC(=O)[C@H](C)NC(=O)[C@@H]1CSSC[C@H](NC(=O)[C@H](CCCCN)NC(=O)CC[C@H](NC(=O)CCCCCCCCCCCCCCCCCCC(=O)O)C(=O)O)C(=O)N[C@@H](CC(N)=O)C(=O)N[C@@H]([C@@H](C)O)C(=O)N[C@@H](C)C(=O)N[C@@H]([C@@H](C)O)C(=O)N1)[C@@H](C)O)C(=O)N1CCC[C@H]1C(=O)N[C@@H](CO)C(=O)N[C@@H](CO)C(=O)N[C@H](C(=O)N[C@@H](CC(N)=O)C(=O)N[C@H](C(=O)NCC(=O)N[C@@H](CO)C(=O)N[C@@H](CCC(=O)O)C(=O)N[C@H](C(=O)N[C@@H](Cc1ccc(O)cc1)C(N)=O)[C@@H](C)O)C(C)C)[C@@H](C)O
notes: also called compound 22
Ratio hCT/hAmylin funct. [1]: 3.8
hAmylin-R funct. EC50 [1]: 0.27 nM
hCTR funct. EC50 [2]: 1.03 nM
IC50 [3]: 0.794 nM

Second part, the binder after the results:

Ratio hCT/hAmylin funct. [1]: 1.1
hAmylin-R funct. EC50 [1]: 0.082 nM
hCTR funct. EC50 [2]: 0.087 nM
IC50 [3]: 0.072 nM
B1: N^α1-[(4S)-4-carboxy-4-(19-carboxynonadecanoylamino)butanoyl]-[Glu14,Arg17,Pro21,Pro27,Pro37]-h-amylin (peptide)
peptide: {C20 diacid-γGlu}-KCNTATCATQRLAEFLRHSSPNFGAIPSSTNVGSNTP-NH2
modifications: disulfide 2-7
SMILES: CC[C@H](C)[C@H](NC(=O)[C@H](C)NC(=O)CNC(=O)[C@H](Cc1ccccc1)NC(=O)[C@H](CC(N)=O)NC(=O)[C@@H]1CCCN1C(=O)[C@H](CO)NC(=O)[C@H](CO)NC(=O)[C@H](Cc1c[nH]cn1)NC(=O)[C@H](CCCNC(=N)N)NC(=O)[C@H](CC(C)C)NC(=O)[C@H](Cc1ccccc1)NC(=O)[C@H](CCC(=O)O)NC(=O)[C@H](C)NC(=O)[C@H](CC(C)C)NC(=O)[C@H](CCCNC(=N)N)NC(=O)[C@H](CCC(N)=O)NC(=O)[C@@H](NC(=O)[C@H](C)NC(=O)[C@@H]1CSSC[C@H](NC(=O)[C@H](CCCCN)NC(=O)CC[C@H](NC(=O)CCCCCCCCCCCCCCCCCCC(=O)O)C(=O)O)C(=O)N[C@@H](CC(N)=O)C(=O)N[C@@H]([C@@H](C)O)C(=O)N[C@@H](C)C(=O)N[C@@H]([C@@H](C)O)C(=O)N1)[C@@H](C)O)C(=O)N1CCC[C@H]1C(=O)N[C@@H](CO)C(=O)N[C@@H](CO)C(=O)N[C@H](C(=O)N[C@@H](CC(N)=O)C(=O)N[C@H](C(=O)NCC(=O)N[C@@H](CO)C(=O)N[C@@H](CC(N)=O)C(=O)N[C@H](C(=O)N1CCC[C@H]1C(N)=O)[C@@H](C)O)C(C)C)[C@@H](C)O
notes: also called compound 8

Ratio hCT/hAmylin funct. [1]: 6.5
hAmylin-R funct. EC50 [1]: 0.421 nM
hCTR funct. EC50 [2]: 2.75 nM
IC50 [3]: 0.232 nM
B2: N^ε1-[(4S)-4-carboxy-4-(19-carboxynonadecanoylamino)butanoyl]-[Glu14,Arg17,Pro21,Pro27,Arg34,Glu35]-h-amylin (peptide)
peptide: K([γGlu-C20 diacid])CNTATCATQRLAEFLRHSSPNFGAIPSSTNVGRETY-NH2
modifications: disulfide 2-7; N-terminus assumed
SMILES: CC[C@H](C)[C@H](NC(=O)[C@H](C)NC(=O)CNC(=O)[C@H](Cc1ccccc1)NC(=O)[C@H](CC(N)=O)NC(=O)[C@@H]1CCCN1C(=O)[C@H](CO)NC(=O)[C@H](CO)NC(=O)[C@H](Cc1c[nH]cn1)NC(=O)[C@H](CCCNC(=N)N)NC(=O)[C@H](CC(C)C)NC(=O)[C@H](Cc1ccccc1)NC(=O)[C@H](CCC(=O)O)NC(=O)[C@H](C)NC(=O)[C@H](CC(C)C)NC(=O)[C@H](CCCNC(=N)N)NC(=O)[C@H](CCC(N)=O)NC(=O)[C@@H](NC(=O)[C@H](C)NC(=O)[C@@H]1CSSC[C@H](NC(=O)[C@@H](N)CCCCNC(=O)CC[C@H](NC(=O)CCCCCCCCCCCCCCCCCCC(=O)O)C(=O)O)C(=O)N[C@@H](CC(N)=O)C(=O)N[C@@H]([C@@H](C)O)C(=O)N[C@@H](C)C(=O)N[C@@H]([C@@H](C)O)C(=O)N1)[C@@H](C)O)C(=O)N1CCC[C@H]1C(=O)N[C@@H](CO)C(=O)N[C@@H](CO)C(=O)N[C@H](C(=O)N[C@@H](CC(N)=O)C(=O)N[C@H](C(=O)NCC(=O)N[C@@H](CCCNC(=N)N)C(=O)N[C@@H](CCC(=O)O)C(=O)N[C@H](C(=O)N[C@@H](Cc1ccc(O)cc1)C(N)=O)[C@@H](C)O)C(C)C)[C@@H](C)O

Ratio hCT/hAmylin funct. [1]: 1.6
hAmylin-R funct. EC50 [1]: 0.146 nM
hCTR funct. EC50 [2]: 0.238 nM
IC50 [3]: 0.196 nM
B4: N^α1-[(4S)-4-carboxy-4-[[(4S)-4-carboxy-4-(19-carboxynonadecanoylamino)butanoyl]amino]butanoyl]-[Glu14,Arg17,Pro21,Pro27,Pro37]-h-amylin (peptide)
peptide: {C20 diacid-γGlu-γGlu}-KCNTATCATQRLAEFLRHSSPNFGAIPSSTNVGSNTP-NH2
modifications: disulfide 2-7
SMILES: CC[C@H](C)[C@H](NC(=O)[C@H](C)NC(=O)CNC(=O)[C@H](Cc1ccccc1)NC(=O)[C@H](CC(N)=O)NC(=O)[C@@H]1CCCN1C(=O)[C@H](CO)NC(=O)[C@H](CO)NC(=O)[C@H](Cc1c[nH]cn1)NC(=O)[C@H](CCCNC(=N)N)NC(=O)[C@H](CC(C)C)NC(=O)[C@H](Cc1ccccc1)NC(=O)[C@H](CCC(=O)O)NC(=O)[C@H](C)NC(=O)[C@H](CC(C)C)NC(=O)[C@H](CCCNC(=N)N)NC(=O)[C@H](CCC(N)=O)NC(=O)[C@@H](NC(=O)[C@H](C)NC(=O)[C@@H]1CSSC[C@H](NC(=O)[C@H](CCCCN)NC(=O)CC[C@H](NC(=O)CC[C@H](NC(=O)CCCCCCCCCCCCCCCCCCC(=O)O)C(=O)O)C(=O)O)C(=O)N[C@@H](CC(N)=O)C(=O)N[C@@H]([C@@H](C)O)C(=O)N[C@@H](C)C(=O)N[C@@H]([C@@H](C)O)C(=O)N1)[C@@H](C)O)C(=O)N1CCC[C@H]1C(=O)N[C@@H](CO)C(=O)N[C@@H](CO)C(=O)N[C@H](C(=O)N[C@@H](CC(N)=O)C(=O)N[C@H](C(=O)NCC(=O)N[C@@H](CO)C(=O)N[C@@H](CC(N)=O)C(=O)N[C@H](C(=O)N1CCC[C@H]1C(N)=O)[C@@H](C)O)C(C)C)[C@@H](C)O
notes: also called compound 14
